How the values were obtained:
[1] = molecular target: T1, 4-1BB-ECD-hFc (human, UniProt Q07011 24-186); experiment: ELISA, 4-1BB-ECD-hFc coated
T1 construct: extracellular domain; Coated on the ELISA plate; also called 4-1BB-hFc; 4-1BB-hFc蛋白; not shown: human Fc (hFc)

[2] = molecular target: T2, 人4-1BB on Jurkat-4-1BB细胞 (human, UniProt Q07011 24-255); experiment: FACS on Jurkat-4-1BB cells
T2 construct: whole, on cells; the reporter line Jurkat-4-1BB-NFkB-luc carries the same receptor; also called Jurkat-4-1BB-NFkB-luc; CD137
T2 sequence (Q07011 24-255): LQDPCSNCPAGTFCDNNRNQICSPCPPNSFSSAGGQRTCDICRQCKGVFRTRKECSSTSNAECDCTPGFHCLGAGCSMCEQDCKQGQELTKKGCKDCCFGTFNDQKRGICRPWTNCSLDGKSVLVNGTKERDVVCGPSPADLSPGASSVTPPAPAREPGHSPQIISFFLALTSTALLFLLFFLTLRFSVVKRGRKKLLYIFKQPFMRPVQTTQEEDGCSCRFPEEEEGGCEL

[3] = molecular target: T1, 4-1BB-ECD-hFc; experiment: ELISA, method as in Example 1

Binder	binding result [1]	binding result [2]	binding result [3]
抗人4-1BB杂交瘤抗体8E9 (antibody, V domains shown, Mouse hybridoma antibody purified on Protein A) VH: QAQLQQSGPELVRPGTSVKMSCKTSGYSFTGYWMHWMKQRPGQGLEWIGMIDPSNSDTRLNQKFKDKATLNVDKSSNTAYMDFSSLTSEDSAVYYCARWRYYGYDGIAYWGQGTLVTVSA VL: DIVMTQSPSSLTVTAGEKVTVSCKSSQSLLNSGNQRNYLTWYQQKPGQPPKLLIYWASTRESGVPDHFTGSGSGTDFTLTISSVQAEDLAVYYCQNDYTYPFTFGGGTKLEIK	binds	binds	
抗人4-1BB人源化抗体3A11 (antibody, V domains shown, Humanised antibody expressed in 293 cells, purified on Protein A, captured by anti-human IgG in Biacore; also called hu3A11) VH: EVQLVESGGGLVKPGGSLRLSCAASGFIFNTNAMNWVRQAPGKGLEWIARIRSKINNYATYYADSVKDRFTISRDDSKNTLYLQMNSLKTEDTAVYYCNWDEAYWGQGTLVTVSS VL: DIQMTQSPSSLSASVGDRVTITCKASDHINNWLAWYQQKPGKAPKLLIFGATSLETGVPSRFSGSASGNDYTLTISSLQPEDFATYYCQQYWSIPYTFGQGTKLEIK		binds	binds
抗人4-1BB杂交瘤抗体3F10 (antibody, V domains shown, Mouse hybridoma antibody purified on Protein A) VH: QVQLQQSGAELVRPGASVKISCKAFGFTFTHHHINWVKQRPGQGLDWIGYINPYNDYSIYNQKFEGKATLTVDKSSSTAYMELSRLTSDDSAVYFCARGGLGRGYFDYWGQGTTLTVSS VL: DIVMTQSTAIMSASLGEKVTMTCRASSSVTSSYLHWYQQKSGASPKIWISSTSNLASGVPVRFSGSGSGTSYSLTISSVEAEDAATYYCQQYSGNPYTFGGGTKLEIK	binds	binds	
抗人4-1BB杂交瘤抗体1A2 (antibody, V domains shown, Mouse hybridoma antibody purified on Protein A) VH: EAQLQQSGAELVKPGASVKLSCTASGFNIKDTYMNWMKQRPEQGLEWIGRIAPANGNTKYAPQFQDKATITADTSSNTANLQLSSLTSEDTAVYYCARSYGSNFFDYWGQGTALTVSS VL: EIQLTQSPASLAVSLGQRATISCKSSQSVDNYDNSFMHWYQQKPGQPPKLLIKRASNLETGVPARFSGSGSRTDFTLNIHPVEEEDTATYFCQQSVENPFTFGSGTKVELK	binds	binds	
抗人4-1BB杂交瘤抗体10B2 (antibody, V domains shown, Mouse hybridoma antibody purified on Protein A) VH: DVQLVESGGGLVQPGGSRKLSCAASGFTFSTFGLHWVRQAPEKGLEWVAYISSDSNTIYYADTMKGRFTISRDNPKNTLFLQLTSLRSEDTAVYYCTRGDPAYYGYGGRFVYALDFWGQGTSVAVSS VL: DVVVTQTPLSLPVSFGDQVSISCRSSQSLTNSYGHTYLSWYLHKPGQSPQLLIYGISIRFSGVPDRFSGSGSGTDFTLRISTVKPEDLGMYYCLQGTHQPWTFGGGTKLEIK	binds	binds	
抗人4-1BB人源化抗体1A2 (antibody, V domains shown, Humanised antibody expressed in 293 cells, purified on Protein A, captured by anti-human IgG in Biacore; also called hu1A2) VH: EAQLVQSGAEVKKPGATVKISCKVSGFNIKDTYMNWVQQAPGKGLEWIGRIAPANGNTKYAPQFQDRATITADTSTDTAYMELSSLRSEDTAVYYCARSYGSNFFDYWGQGTLVTVSS VL: EIVLTQSPATLSLSPGERATLSCKSSQSVDNYDNSFMHWYQQKPGQAPRLLIYRASNLETGIPARFSGSGSRTDFTLTISSLEPEDFAVYYCQQSVENPFTFGQGTKLEIK		binds	binds
抗人4-1BB人源化抗体8H8 (antibody, V domains shown, Humanised antibody expressed in 293 cells, purified on Protein A, captured by anti-human IgG in Biacore; also called hu8H8) VH: QIQLVQSGSELKKPGASVKVSCKASGYTFSNYGMNWVRQAPGQGLEWMGWINTHTGEPTYADEFKGRFVFSLDTSVSTAYLQISSLKAEDTAVYYCARVLTMVMDYWGQGTLVTVSS VL: DIVLTQSPDSLAVSLGERATINCRASEIIDGSGNSFVHWYQQKPGQPPKLLIYRTSTLESGVPDRFSGSGSRTDFTLTISSLQAEDVAVYYCLQTVEDPWTFGGGTKVEIK		binds	binds
抗人4-1BB杂交瘤抗体8A8 (antibody, V domains shown, Mouse hybridoma antibody purified on Protein A) VH: QVQLKQSGPGLVQPSQSLSITCTVSGFSLTNYGVHWVRQSPGKGLEWLGAIWSGGNTDYSAAFMSRVTINKDNSKSQVFFKMNSLRPDDTAIYYCARNPYYTNVMDYWGQGTSVTVSS VL: DIQMTQSPASLSASVGETVTITCRASGNIGNFLAWYQQKQGKSPQLLVYNGETLADGVPSRFSGSGSGTQYSLKINSLQPEDFGSYYCQHFWSTPWTFGGGTKLEIK	binds	binds	
抗人4-1BB人源化抗体10B2 (antibody, V domains shown, Humanised antibody expressed in 293 cells, purified on Protein A, captured by anti-human IgG in Biacore; also called hu10B2) VH: QVQLVESGGGVVQPGRSLRLSCAASGFTFSTFGLHWVRQAPGKGLEWVAYISSDSNTIYYADTMKGRFTISRDNSKNTLYLQMNSLRAEDTAVYYCTRGDPAYYGYGGRFVYALDFWGQGTLVTVSS VL: DVVVTQTPLSLSVTPGQPASISCRSSQSLTNSYGHTYLSWYLQKPGQSPQLLIYGISIRFSGVPDRFSGSGSGTDFTLKISRVEAEDVGVYYCLQGTHQPWTFGGGTKVEIK		binds	binds
抗人4-1BB杂交瘤抗体3A11 (antibody, V domains shown, Mouse hybridoma antibody purified on Protein A) VH: EVQLVETGGGLVQPNGSLKLSCAASGFIFNTNAMNWVRQAPGKGLEWIARIRSKINNYATYYADSVKDRFTISRDDSQSMLYLQMNNLKTEDTGMYYCNWDEAYWGQGTLVTVSA VL: DIQMTQSSSYLSVSLGGRVTVTCKASDHINNWLAWYQQKPGNAPRLLIFGATSLETGVPSRFSGSASGNDYTLTITSLQTEDVATYYCQQYWSIPYTFGGGTKLEIK	binds	binds	
抗人4-1BB杂交瘤抗体2F10 (antibody, V domains shown, Mouse hybridoma antibody purified on Protein A) VH: QVQLQQSGAALVKPGASVKLSCTASGFNIEDTYLNWVKQRPEQGLEWIGKIYPANGDTKYDPKFQGKATITAETPSNKAYLQLSSLTSEDTAVYYCTRGYGSNFFDCWGQGTSLTVSS VL: DIVLTQSPASLAVALGQRATISCRASESVDSYDNSFMHWYQQKVGQPPKLLIYRASNLESGLPARFSGSGSRTDFTLTINPVEADDVATYYCQQSNEDPYTFGGGTKLEII	binds	binds	
抗人4-1BB杂交瘤抗体8H8 (antibody, V domains shown, Mouse hybridoma antibody purified on Protein A) VH: QIQLVQSGPELKKPGETVKISCKASGYTFSNYGMNWVKQAPGKGLKWMGWINTHTGEPTYADEFKGRFAFSLETSVSTAYLQINNLKNEDTATYFCARVLTMVMDYWGQGTSVTVSS VL: DIVLTQSPASLAVSLGQRATISCRASEIIDGSGNSFVHWYQQKPGQPPKLLIYRTSTLESGIPARFSGSGSRTDFTLTINPVEADDVATYSCLQTVEDPWTFGGGTKLEIK	binds	binds	

From CN112538116A (DONGDA BIOTECHNOLOGY SUZHOU CO LTD, dated 2021)
